{
  "source": "the supplement of paper PMC12458215",
  "tested_on": "HEK293T",
  "experiment": "plasma membrane surface immunostaining intensity (anti-HA, deep receptor scanning) (arbitrary fluorescence units); higher = higher plasma membrane expression",
  "note": "± gives the uncertainty stated by the source.",
  "data": [
    {"sequence": "MKVGVLWLISFFTFTDGHGGFLGKNDGIKTKKELIVNKKKHLGPVEEYQLLLQVTYRDSKEKRDLRNFLKLLKPPLLWSHGLIRIIRAKATTDCNSLNGVLQCTCEDSYTWFPPSCLDPQNCYLHTAGALPSCECHLNNLSQSVNFCERTKIWGTFKINERFTNDLLNSSSAIYSKYANGIEIQLKKAYERIQGFESVQVTQFRNGSIVAGYEVVGSSSASELLSAIEHVAEKAKTALHKLFPLEDGSFRVFGKAQCNDIVFGFGSKDDEYTLPCSSGYRGNITAKCESSGWQVIRETCVLSLLEELNKNFSMIVGNATEAAVSSFVQNLSVIIRQNPSTTVGNLASVVSILSNISSLSLASHFRVSNSTMEDVISIADNILNSASVTNWTVLLREEKYASSRLLETLENISTLVPPTALPLNFSRKFIDWKGIPVNKSQLKRGYSYQIKMCPQNTSIPIRGRVLIGSDQFQRSLPETIISMASLTLGNILPVSKNGNAQVNGPVISTVIQNYSINEVFLFFSKIESNLSQPHCVFWDFSHLQWNDAGCHLVNETQDIVTCQCTHLTSFSILMSPFVPSTIFPVVKWITYVGLGISIGSLILCLIIEALFWKQIKKSQTSHTRRICMVNIALSLLIADVWFIVGATVDTTVNPSGVCTAAVFFTHFFYLSLFFWMLMLGILLAYRIILVFHHMAQHLMMAVGFCLGYGCPLIISVITIAVTQPSNTYKRKDVCWLNWSNGSKPLLAFVVPALAIVAVNFVVVLLVLTKLWRPTVGERLSRDDKATIIRVGKSLLILTPLLGLTWGFGIGTIVDSQNLAWHVIFALLNAFQGFFILCFGILLDSKLRQLLFNKLSALSSWKQTEKQNSSDLSAKPKFSKPFNPLQNKGHYAFSHTGDSSDNIMLTQFVSNE [ADGRF1]", "values": [
      {"measurement": "plasma membrane surface immunostaining intensity", "setting": "GPCR class: B", "result": "466 ± 27"}
    ]},
    {"sequence": "MAQQWSLQRLAGRHPQDSYEDSTQSSIFTYTNSNSTRGPFEGPNYHIAPRWVYHLTSVWMIFVVIASVFTNGLVLAATMKFKKLRHPLNWILVNLAVADLAETVIASTISVVNQVYGYFVLGHPMCVLEGYTVSLCGITGLWSLAIISWERWMVVCKPFGNVRFDAKLAIVGIAFSWIWAAVWTAPPIFGWSRYWPHGLKTSCGPDVFSGSSYPGVQSYMIVLMVTCCITPLSIIVLCYLQVWLAIRAVAKQQKESESTQKAEKEVTRMVVVMVLAFCFCWGPYAFFACFAAANPGYPFHPLMAALPAFFAKSATIYNPVIYVFMNRQFRNCILQLFGKKVDDGSELSSASKTEVSSVSSVSPA [OPN1MW3]", "values": [
      {"measurement": "plasma membrane surface immunostaining intensity", "setting": "GPCR class: A", "result": "288 ± 18"}
    ]},
    {"sequence": "MGDWNNSDAVEPIFILRGFPGLEYVHSWLSILFCLAYLVAFMGNVTILSVIWIESSLHQPMYYFISILAVNDLGMSLSTLPTMLAVLWLDAPEIQASACYAQLFFIHTFTFLESSVLLAMAFDRFVAICHPLHYPTILTNSVIGKIGLACLLRSLGVVLPTPLLLRHYHYCHGNALSHAFCLHQDVLRLSCTDARTNSIYGLCVVIATLGVDSIFILLSYVLILNTVLDIASREEQLKALNTCVSHICVVLIFFVPVIGVSMVHRFGKHLSPIVHILMADIYLLLPPVLNPIVYSVRTKQIRLGILHKFVLRRRF [OR51L1]", "values": [
      {"measurement": "plasma membrane surface immunostaining intensity", "setting": "GPCR class: A (Olfactory)", "result": "274 ± 150"}
    ]},
    {"sequence": "MGNRSTADADGLLAGRGPAAGASAGASAGLAGQGAAALVGGVLLIGAVLAGNSLVCVSVATERALQTPTNSFIVSLAAADLLLALLVLPLFVYSEVQGGAWLLSPRLCDALMAMDVMLCTASIFNLCAISVDRFVAVAVPLRYNRQGGSRRQLLLIGATWLLSAAVAAPVLCGLNDVRGRDPAVCRLEDRDYVVYSSVCSFFLPCPLMLLLYWATFRGLQRWEVARRAKLHGRAPRRPSGPGPPSPTPPAPRLPQDPCGPDCAPPAPGLPRGPCGPDCAPAAPSLPQDPCGPDCAPPAPGLPPDPCGSNCAPPDAVRAAALPPQTPPQTRRRRRAKITGRERKAMRVLPVVVGAFLLCWTPFFVVHITQALCPACSVPPRLVSAVTWLGYVNSALNPVIYTVFNAEFRNVFRKALRACC [DRD4]", "values": [
      {"measurement": "plasma membrane surface immunostaining intensity", "setting": "GPCR class: A", "result": "602 ± 92"}
    ]},
    {"sequence": "MGNWTAAVTEFVLLGFSLSREVELLLLVLLLPTFLLTLLGNLLIISTVLSCSRLHTPMYFFLCNLSILDILFTSVISPKVLANLGSRDKTISFAGCITQCYFYFFLGTVEFLLLTVMSYDRYATICCPLRYTTIMRPSVCIGTVVFSWVGGFLSVLFPTILISQLPFCGSNIINHFFCDSGPLLALACADTTAIELMDFMLSSMVILCCIVLVAYSYTYIILTIVRIPSASGRKKAFNTCASHLTIVIISSGITVFIYVTPSQKEYLEINKIPLVLSSVVTPFLNPFIYTLRNDTVQGVLRDVWVRVRGVFEKRMRAVLRSRLSSNKDHQGRACSSPPCVYSVKLQC [OR6J1]", "values": [
      {"measurement": "plasma membrane surface immunostaining intensity", "setting": "GPCR class: A (Olfactory)", "result": "279 ± 110"}
    ]},
    {"sequence": "MEPLNRTEVSEFFLKGFSGYPALEHLLFPLCSAMYLVTLLGNTAIMAVSVLDIHLHTPVYFFLGNLSTLDICYTPTFVPLMLVHLLSSRKTISFAVCAIQMCLSLSTGSTECLLLAITAYDRYLAICQPLRYHVLMSHRLCVLLMGAAWVLCLLKSVTEMVISMRLPFCGHHVVSHFTCKILAVLKLACGNTSVSEDFLLAGSILLLPVPLAFICLSYLLILATILRVPSAARCCKAFSTCLAHLAVVLLFYGTIIFMYLKPKSKEAHISDEVFTVLYAMVTTMLNPTIYSLRNKEVKEAARKVWGRSRASR [OR13J1]", "values": [
      {"measurement": "plasma membrane surface immunostaining intensity", "setting": "GPCR class: A (Olfactory)", "result": "140 ± 33"}
    ]},
    {"sequence": "MTNQTQMMEFLLVRFTENWVLLRLHALLFSLIYLTAVLMNLVIILLMILDHRLHMAMYFFLRHLSFLDLCLISATVPKSILNSVASTDSISFLGCVLQLFLVVLLAGSEIGILTAMSYDRYAAICCPLHCEAVMSRGLCVQLMALSWLNRGALGLLYTAGTFSLNFYGSDELHQFFCDVPALLKLTCSKEHAIISVSVAIGVCYAFSCLVCIVVSYVYIFSAVLRISQRQRQSKAFSNCVPHLIVVTVFLVTGAVAYLKPGSDAPSILDLLVSVFYSVAPPTLNPVIYCLKNKDIKSALSKVLWNVRSSGVMKR [OR14K1]", "values": [
      {"measurement": "plasma membrane surface immunostaining intensity", "setting": "GPCR class: A (Olfactory)", "result": "155 ± 35"}
    ]},
    {"sequence": "MSGTNQSSVSEFLLLGLSRQPQQQHLLFVFFLSMYLATVLGNLLIILSVSIDSCLHTPMYFFLSNLSFVDICFSFTTVPKMLANHILETQTISFCGCLTQMYFVFMFVDMDNFLLAVMAYDHFVAVCHPLHYTAKMTHQLCALLVAGLWVVANLNVLLHTLLMAPLSFCADNAITHFFCDVTPLLKLSCSDTHLNEVIILSEGALVMITPFLCILASYMHITCTVLKVPSTKGRWKAFSTCGSHLAVVLLFYSTIIAVYFNPLSSHSAEKDTMATVLYTVVTPMLNPFIYSLRNRYLKGALKKVVGRVVFSV [OR1F1]", "values": [
      {"measurement": "plasma membrane surface immunostaining intensity", "setting": "GPCR class: A (Olfactory)", "result": "278 ± 120"}
    ]},
    {"sequence": "MESSGNPESTTFFYYDLQSQPCENQAWVFATLATTVLYCLVFLLSLVGNSLVLWVLVKYESLESLTNIFILNLCLSDLVFACLLPVWISPYHWGWVLGDFLCKLLNMIFSISLYSSIFFLTIMTIHRYLSVVSPLSTLRVPTLRCRVLVTMAVWVASILSSILDTIFHKVLSSGCDYSELTWYLTSVYQHNLFFLLSLGIILFCYVEILRTLFRSRSKRRHRTVKLIFAIVVAYFLSWGPYNFTLFLQTLFRTQIIRSCEAKQQLEYALLICRNLAFSHCCFNPVLYVFVGVKFRTHLKHVLRQFWFCRLQAPSPASIPHSPGAFAYEGASFY [XCR1]", "values": [
      {"measurement": "plasma membrane surface immunostaining intensity", "setting": "GPCR class: A", "result": "190 ± 16"}
    ]},
    {"sequence": "MGTARIAPGLALLLCCPVLSSAYALVDADDVMTKEEQIFLLHRAQAQCEKRLKEVLQRPASIMESDKGWTSASTSGKPRKDKASGKLYPESEEDKEAPTGSRYRGRPCLPEWDHILCWPLGAPGEVVAVPCPDYIYDFNHKGHAYRRCDRNGSWELVPGHNRTWANYSECVKFLTNETREREVFDRLGMIYTVGYSVSLASLTVAVLILAYFRRLHCTRNYIHMHLFLSFMLRAVSIFVKDAVLYSGATLDEAERLTEEELRAIAQAPPPPATAAAGYAGCRVAVTFFLYFLATNYYWILVEGLYLHSLIFMAFFSEKKYLWGFTVFGWGLPAVFVAVWVSVRATLANTGCWDLSSGNKKWIIQVPILASIVLNFILFINIVRVLATKLRETNAGRCDTRQQYRKLLKSTLVLMPLFGVHYIVFMATPYTEVSGTLWQVQMHYEMLFNSFQGFFVAIIYCFCNGEVQAEIKKSWSRWTLALDFKRKARSGSSSYSYGPMVSHTSVTNVGPRVGLGLPLSPRLLPTATTNGHPQLPGHAKPGTPALETLETTPPAMAAPKDDGFLNGSCSGLDEEASGPERPPALLQEEWETVM [PTH1R]", "values": [
      {"measurement": "plasma membrane surface immunostaining intensity", "setting": "GPCR class: B", "result": "770 ± 69"}
    ]},
    {"sequence": "MDPLNLSWYDDDLERQNWSRPFNGSDGKADRPHYNYYATLLTLLIAVIVFGNVLVCMAVSREKALQTTTNYLIVSLAVADLLVATLVMPWVVYLEVVGEWKFSRIHCDIFVTLDVMMCTASILNLCAISIDRYTAVAMPMLYNTRYSSKRRVTVMISIVWVLSFTISCPLLFGLNNADQNECIIANPAFVVYSSIVSFYVPFIVTLLVYIKIYIVLRRRRKRVNTKRSSRAFRAHLRAPLKGNCTHPEDMKLCTVIMKSNGSFPVNRRRVEAARRAQELEMEMLSSTSPPERTRYSPIPPSHHQLTLPDPSHHGLHSTPDSPAKPEKNGHAKDHPKIAKIFEIQTMPNGKTRTSLKTMSRRKLSQQKEKKATQMLAIVLGVFIICWLPFFITHILNIHCDCNIPPVLYSAFTWLGYVNSAVNPIIYTTFNIEFRKAFLKILHC [DRD2]", "values": [
      {"measurement": "plasma membrane surface immunostaining intensity", "setting": "GPCR class: A", "result": "1950 ± 620"}
    ]},
    {"sequence": "MARPDPSAPPSLLLLLLAQLVGRAAAASKAPVCQEITVPMCRGIGYNLTHMPNQFNHDTQDEAGLEVHQFWPLVEIQCSPDLRFFLCSMYTPICLPDYHKPLPPCRSVCERAKAGCSPLMRQYGFAWPERMSCDRLPVLGRDAEVLCMDYNRSEATTAPPRPFPAKPTLPGPPGAPASGGECPAGGPFVCKCREPFVPILKESHPLYNKVRTGQVPNCAVPCYQPSFSADERTFATFWIGLWSVLCFISTSTTVATFLIDMERFRYPERPIIFLSACYLCVSLGFLVRLVVGHASVACSREHNHIHYETTGPALCTIVFLLVYFFGMASSIWWVILSLTWFLAAGMKWGNEAIAGYAQYFHLAAWLIPSVKSITALALSSVDGDPVAGICYVGNQNLNSLRGFVLGPLVLYLLVGTLFLLAGFVSLFRIRSVIKQGGTKTDKLEKLMIRIGIFTLLYTVPASIVVACYLYEQHYRESWEAALTCACPGHDTGQPRAKPEYWVLMLKYFMCLVVGITSGVWIWSGKTVESWRRFTSRCCCRPRRGHKSGGAMAAGDYPEASAALTGRTGPPGPAATYHKQVSLSHV [FZD5]", "values": [
      {"measurement": "plasma membrane surface immunostaining intensity", "setting": "GPCR class: F", "result": "4020 ± 200"}
    ]},
    {"sequence": "MDAALLHSLLEANCSLALAEELLLDGWGPPLDPEGPYSYCNTTLDQIGTCWPRSAAGALVERPCPEYFNGVKYNTTRNAYRECLENGTWASKINYSQCEPILDDKQRKYDLHYRIALVVNYLGHCVSVAALVAAFLLFLALRSIRCLRNVIHWNLITTFILRNVMWFLLQLVDHEVHESNEVWCRCITTIFNYFVVTNFFWMFVEGCYLHTAIVMTYSTERLRKCLFLFIGWCIPFPIIVAWAIGKLYYENEQCWFGKEPGDLVDYIYQGPIILVLLINFVFLFNIVRILMTKLRASTTSETIQYRKAVKATLVLLPLLGITYMLFFVNPGEDDLSQIMFIYFNSFLQSFQGFFVSVFYCFFNGEVRSAVRKRWHRWQDHHSLRVPMARAMSIPTSPTRISFHSIKQTAAV [CRHR2]", "values": [
      {"measurement": "plasma membrane surface immunostaining intensity", "setting": "GPCR class: B", "result": "2380 ± 560"}
    ]},
    {"sequence": "MESNQTWITEVILLGFQVDPALELFLFGFFLLFYSLTLMGNGIILGLIYLDSRLHTPMYVFLSHLAIVDMSYASSTVPKMLANLVMHKKVISFAPCILQTFLYLAFAITECLILVMMCYDRYVAICHPLQYTLIMNWRVCTVLASTCWIFSFLLALVHITLILRLPFCGPQKINHFFCQIMSVFKLACADTRLNQVVLFAGSAFILVGPLCLVLVSYLHILVAILRIQSGEGRRKAFSTCSSHLCVVGLFFGSAIVMYMAPKSSHSQERRKILSLFYSLFNPILNPLIYSLRNAEVKGALKRVLWKQRSM [OR2A12]", "values": [
      {"measurement": "plasma membrane surface immunostaining intensity", "setting": "GPCR class: A (Olfactory)", "result": "126 ± 28"}
    ]}
  ]
}
